{"source": "the DeepSol protein solubility set", "data": [{"assay": "soluble on expression in E. coli; label from the status in PepcDB or PDB records", "values": [{"sequence": "MGSDKIHHHHHHMFSKKVKWEETMTYKSIRALERGIDVLQYLNTVKGAAPPEIAENVNLPRPTVHRILETLSELNLVYRSQLGDEYRLSSGVQRLAGNRSSVRLNWIDEIALPALLELTSEIIWPSDIAVCHKAAMIIQGTTHRISPMSCDVGMVGNRRSMLMSPLGRAYLSHCPDDELKSILCALNASSASEDKGARDRAFIKEIIETGRRDGVSACNERPHPRCASLAAPIRLNGKVLACMNVVWRANMLTIEDAMDQIRDPLLATRDRIEAQLHEQFARPALGSTSFPETYTLRTGTRDRLPHSLALA", "soluble on expression in E. coli": "not soluble"}, {"sequence": "MVAISDLRGLSLPEALGGIVEAIENVEVGEQVQFVLDSDADVEAITTHLSEYAECSAEKGDRFILLKVTKRAEFKADEEEEFRIDENTNVGRLIERYPEATEILASYGFTPLRNPVLRKTLAKTITLGRAKMLKKLSDEEFEEMLRKLRELRG", "soluble on expression in E. coli": "not soluble"}, {"sequence": "MGSDKIHHHHHHMVIQMKFFNREKEIHEILSILEGEPNIIYFIYGPLNSGKTALIKHIIENKLSDDYKVFYINFRTYLISEKREFIEAIFTTKKDDFFEKIKDKSEVLNLITKGAKILTGIPIPEVEFDKLFEEKINDAFQYLNSILLEVKKSGKQPVLILDELQMIKDVVLNWQKYLLKELFQFLVSLTKEQHLCHVFCLSSDSLFIEYVYSAGELEGRAKYLLVDDFDKETALKFMDFLAKEILNKKLSDEDKELIYNYVGGKPVYIYSVIDEMRYRKLEDILNLMLKEETQKLKYFLKELDYIKPKVELKDEIIEIKKDDIINALKLFKENYEVSDDDIPEPVYIYLVKKNILFLNPIEGILKPQSFLIWNAIKKLLNGH", "soluble on expression in E. coli": "not soluble"}, {"sequence": "MKEDPRIIKTLSKLQKAFVMLLKTYDAGDINVRQISDEAGVTRGAFYSHFSDKKEFVNFTINELVGSLFNSSLKDSVGFVDEVNHKNAHGTNVLSVSNFFDKVAADYQTYTIVLDTEKLPQFTEVLKERLNSEIKTFAEYYGKKVKHDGFPIEVLSSYYVNGLIGMIRMWLDEGMVYTSHYMANAAKKILGTKIQIDSQNIDLSDFFVDLEHHHHHH", "soluble on expression in E. coli": "soluble"}, {"sequence": "GPGSMESSMSTGDLLTPGALWQDDTKVFVCSGRRCGRRFNRLFCPKHRCRWCGRVYCDACAPKQTVYKRQLLRKCNRCRLPVVFRYSWNERTRAMDCTPFECIISYLTPRSITALLQSCYTMMSEFPVCGYPFYDSIQQRFPSFYPGAQIGRGTFGTVFKCEDRSAADHKRAILKCISKATNLTYTRWMGALTELRILESVNHPNVAHLLGAFQTREDLVIVMEAGEGGTARRAAAGVREYGQAAEEAFTANIIEGVAAGLNYLYREKHIIHRDIKLDNIVLSADYSTPMIIDFGLAEFVVNEEEQWYVVGGTRNYAAPESIAAVANGHVDMKEPGITMHKGDLFSLGVVAYYLLSGHRPFRSRSFDKMHEEMRRGVACTGPLWDGVSSDARELVQALLSYDPAQRPDYAAIKENPFITARTAGVKSIQMQRNARLLLDEEETHAEWVTLEPSDLREAADEGESEVLLPLSTPQRWYHAYLPRFSLLHL", "soluble on expression in E. coli": "not soluble"}, {"sequence": "RSDTIMVLSINPKEKKTELVSIPRDTKAEIAGRGTEEKINHAYAYGGPNMAVKTIEKLMNVPIDHYATIDMDGLHDMIDTLGGVDVVSNSTFTMGANHFVKGEKTHVDGDAAMDFIRSRKEDGAGGDFGRQERQQLILEAMADKLTS", "soluble on expression in E. coli": "not soluble"}, {"sequence": "TEHLTLAFKIERPYDKVLKTISKKNLKNYIKETFNFFKSGYMKQNYLGSENDVIELDDVANIMFYGEGEVGDNHQKFMLIFDTGSANLWVPSKKCNSSGCSIKNLYDSSKSKSYEKDGTKVDITYGSGTVKGFFSKDLVTLGHLSMPYKFIEVTDTDDLEPIYSSVEFDGILGLGWKDLSIGSIDPIVVELKNQNKIDNALFTFYLPVHDVHAGYLTIGGIEEKFYEGNITYEKLNHDLYWQIDLDVHFGKQTMEKANVIVDSGTTTITAPSEFLNKFFANLNVIKVPFLPFYVTTCDNKEMPTLEFKSANNTYTLEPEYYMNPILEVDDTLCMITMLPVDIDSNTFILGDPFMRKYFTVFDYDKESVGFAIAKN", "soluble on expression in E. coli": "soluble"}, {"sequence": "MFSVLLSVYYNESPYYFRQSIDSLFNQSLQLAEVVLVKDGELTPELENVITEYTAKYLQIRVVPLKQNQGLGKALNEGLKHCSYDLVARMDTDDIAKPNRFEKQIRVFQEHPELDVVGAWIDEFEETTSNIISTRKLPEVHDDICQFAKKRNPENHPVIMFRKQAVLAAGGYQHFPLFEDYYLWIRMLQNGAKFYNIQESLLYFRFSSAMFKRRGGLKYVTTELRFQNLLRNLEFITFSEYLYNVFIRVITRMMPNSLRAILYKKALRK", "soluble on expression in E. coli": "not soluble"}, {"sequence": "MAHHHHHHMYDDVEVRRREEARQHTAASLIQRRWREHAERRSLEQDAAPLRGTGGNGVLLVASDAFGDVVGRRGGETDEALRPLKSDGFDELAQTVQTPEEKRRACVEEYRALLAKRKALLENNLVYQQLLSRHYAEQRRRNGEDEVAQLTTPDAEAAYWALVRQVAEERQRVAARSTALKKDLELQRQRYEPIMEEAATQERNFQQYIQELAASVRFMRSNRPIPTEAIEKYIELEAVQRSAIHASRVRYLQLKNRLLRLRRVAKGGAALSSSAPTATAAATGQDGEESNAANHHMFLIDFEQLKVENTSLNEKIEERSEEVLKLRNKVTNTIHIATHVREKLDCVRAENAELRQHVASTDEELGGARDQLAKSKRRRDAHLRANTRMKERMPLVGSRDLLMDYEKRKAVIYNYRTRLVQLTDRHKELTDSIKKEESTIVSLQHELSHYPK", "soluble on expression in E. coli": "not soluble"}, {"sequence": "MIRFIIPLMDCARLYGRPVQFKTERTDINSLMFGLPKLPSVDYFAEEEIAHLMTQEFNPLKEKDTDDTMALTMSRFSSYLQERMTKVSKRNTELNFRTFSDVMGMYNTTRDHSKLNCMSDKDNSVKEFSLSDKSNVSSETTNMMNQLQVNAHEYKSSMCERPIVASTSPIA", "soluble on expression in E. coli": "not soluble"}, {"sequence": "MGSDKIHHHHHHMKNHTYKEIKNIYGKISPFEFKDKLIDIAKYTAKENNRELLDAGRGNPNWTCSTAREAFFTFGHFAITETRSNWDLGHLAGMPQKKGIKERFFKFINENIDMPGAYLARDIINFGINELGFDGDEFVHELADGIIGDNYPLPDRMLPHMEKIVHDYLVQEMKYDISGKYGDVEIFAVEGATAAMCYIFDSLMANELLKKGDTIALMTPIFTPYLEIPNLPRYDFKVVNINANEVDEKGAHTWQYTKKELEKLRDKSIKALFVVNPNNPASIAMDETSCNNLIDVIENYNKDLMIISDDVYGTFVEDFSSLMSKLPYNTVGVYSYSKYFGVTGWRLGTFALHKKNVFDKKINDLTGELKKSVDKRYSDMSLNPSSLSFMERVVADSRLVALNHTAGLSTPQQVQMAFFSAFALIDKVDAYKKLNMSICHRRQKLLFEALELPINENKNNAAYYTQFDIEEWAKLNYGEDLFKFISKTASPVDVLYKLANDYSVVLLSGNGFYGPEWSIRISLANLYDEAYTKIGKAIREILNGYIVEWQKIKK", "soluble on expression in E. coli": "not soluble"}, {"sequence": "SLAPQPLKKGEKAIDVASVVRQKMPASVKDRDAWAKDLATTFESQGLAPTLENVCSVLAVAQQESNYQADPAVPGLSKIAWQEIDRRAERMHIPAFLVHTALKIKSPNGKSYSERLDSVRTEKQLSAIFDDLISMVPMGQTLFGSLNPVRTGGPMQVSIAFAEQHTKGYPWKMDGTVRQEVFSRRGGLWFGTYHLLNYPASYSAPIYRFADFNAGWYASRNAAFQNAVSKASGVKLALDGDLIRYDSKEPGKTELATRKLAGKLGMSDSEIRRQLEKGDSFSFEETALYKKVYQLAEAKTGKSLPREMLPGIQLESPKITRNLTTAWFAKRVDERRARCMKQ", "soluble on expression in E. coli": "soluble"}, {"sequence": "MNTSLFKQERQKYIPKLPNILKKDFNNISLVYGENTEAIQDRQALKEFFKNTYGLPIISFTEGESSLSFSKALNIGIILSGGPAPGGHNVISGVFDAIKKFNPNSKLFGFKGGPLGLLENDKIELTESLINSYRNTGGFDIVSSGRTKIETEEHYNKALFVAKENNLNAIIIIGGDDSNTNAAILAEYFKKNGENIQVIGVPKTIDADLRNDHIEISFGFDSATKIYSELIGNLCRDAMSTKKYWHFVKLMGRSASHVALECALKTHPNICIVSEEVLAKKKTLSEIIDEMVSVILKRSLNGDNFGVVIVPEGLIEFIPEVKSLMLELCDIFDKNEGEFKGLNIEKMKEIFVAKLSDYMKGVYLSLPLFIQFELIKSILERDPHGNFNVSRVPTEKLFIEMIQSRLNDMKKRGEYKGSFTPVDHFFGYEGRSAFPSNFDSDYCYSLGYNAVVLILNGLTGYMSCIKNLNLKPTDWIAGGVPLTMLMNMEERYGEKKPVIKKALVDLEGRPFKEFVKNRDKWALNNLYLYPGPVQYFGSSEIVDEITETLKLELFK", "soluble on expression in E. coli": "soluble"}, {"sequence": "MGHHHHHHSHMYLRHDKPPYTYLAMIALVIQAAPSRRLKLAQIIRQVQAVFPFFREDYEGWKDSIRHNLSSNRCFRKVPKDPAKPQAKGNFWAVDVSLIPAEALRLQNTALCRRWQNGG", "soluble on expression in E. coli": "soluble"}, {"sequence": "MGSDKIHHHHHHMEESKELFKDIEKHLLNDVRPSEYLNEQLNKGNLNKYPFTMLSDLVHTEQNKEHHPEGNVWNHTLLVVDKAAENREKSSDKRAFMWGSLLHDIGKAKTTKVRKGKITSYNHDKVGETMSREFLQCFSEDEDFIYKVIKLVRWHMQTLFVVKNMSFADSKNMLKETSLDEIALLSLCDRLGRQPMSNGKIQEEKENVRTFVRKVKELNKV", "soluble on expression in E. coli": "not soluble"}, {"sequence": "MSDISIEMIKRIVEEVVKKFLSKKILVVFTGGKVNFDISLDELKKIKENSMVEYTLVFSRAASQIFNKKMISDQLESVEVIEEGEAINARECVQKHNMVIFATLTRNTASKISHLILDTLPTQIAINCVLSDVPIVAVRDAADLNVETWRELGFSNFPPALKNSYDKIFKDIESYGIELCNSFELAKKVLGYLNSNSFSIAEKINKEEKSKRENSYYNGAKNIRLEKKIITREDIIGLKGKIDTIEIAKDSIITPLAMDFIRDNQLKVIKT", "soluble on expression in E. coli": "not soluble"}, {"sequence": "MGSDKIHHHHHHMLCSRYFTSSLFLWGEALPTLLEEFLNEVEKMLKNQVNTRRIHQLLKELDDPLLENKDLEEKLQAFLDYVKEIPNLPEARKRYRIQKSLEMIEKLRSWFLIDYLECSGEEVDLSTDIQYAKGVGPNRKKKLKKLGIETLRDLLEFFPRDYEDRRKIFKLNDLLPGEKVTTQGKIVSVETKKFQNMNILTAVLSDGLVHVPLKWFNQDYLQTYLKQLTGKEVFVTGTVKSNAYTGQYEIHNAEVTPKEGEYVRRILPIYRLTSGISQKQMRKIFEENIPSLCCSLKETLPERILEKRKLLGVKDAYYGMHFPKTFYHLEKARERLAYEELFVLQLAFQKIRKEREKHGGIPKKIEGKLAEEFIKSLPFKLTNAQKRAHQEIRNDMISEKPMNRLLQGDVGSGKTVVAQLAILDNYEAGFQTAFMVPTSILAIQHYRRTVESFSKFNIHVALLIGATTPSEKEKIKSGLRNGQIDVVIGTHALIQEDVHFKNLGLVIIDEQHRFGVKQREALMNKGKMVDTLVMSATPIPRSMALAFYGDLDVTVIDEMPPGRKEVQTMLVPMDRVNEVYEFVRQEVMRGGQAFIVYPLIEESDKLNVKSAVEMYEYLSKEVFPEFKLGLMHGRLSQEEKDRVMLEFAEGRYDILVSTTVIEVGIDVPRANVMVIENPERFGLAQLHQLRGRVGRGGQEAYCFLVVGDVGEEAMERLRFFTLNTDGFKIAEYDLKTRGPGEFFGVKQHGLSGFKVADLYRDLKLLEWAREDVQEIDVEGIELPEEIKLIEVG", "soluble on expression in E. coli": "not soluble"}, {"sequence": "MGHHHHHHSHATWHSALRGDAGLDSCRHVDSKCSGLHSSYRNLGTRQCPFSFLAEVMGKEPHFHSCLQVSHEFALNFNPSNPYCAGIQGIVDAYRQALPQVRLYGPTNFAPIINHVARFAQYFMLLLLTDGAVTDVEATREAVVRASNLPMSVIIVGVGGADFEAMEQLDADGGPLHTRSGQAAARDIVQFVPYRRFQNAPREALAQTVLAEVPTQLVSYFRAQGWAPLKPLPPSAKDPAQAPQA", "soluble on expression in E. coli": "not soluble"}]}]}
